Assay results: article PMC10372118

Molecular target: truncated human ACE2 (residues 19-613 with a C-terminal AviTag and 6xHis-tag), biotinylated (human) (UniProt Q9BYF1)
Assay: BLI

## SARS-CoV-2 ancestral receptor-binding domain (RBD), recombinant (from UniProt P0DTC2) (domain or fragment)
  t1/2: 1.39 min
